Measured values published in PMC4881948, “X-Ray Solution Scattering Study of Four Escherichia coli Enzymes Involved in Stationary-Phase Metabolism” (PLoS ONE, 2016).

Tests used:
[1] = molecular target: the molecule itself; test: SEC + AUC; GadA at pH 7.5: Tris-HCl, 10 mM NaCl, 1 mM DTT pH 7.5; SEC on Superdex 200 10/300 GL, load 5 mg/ml; sedimentation velocity at 20°C, 0.4 mg/ml
[2] = molecular target: the molecule itself; test: SEC + AUC; GadA at pH 4.6: 100 mM Na-acetate, 10 mM NaCl, 1 mM DTT pH 4.6; SEC on Superdex 200 10/300 GL, load 5 mg/ml; sedimentation velocity at 20°C, 0.4 mg/ml
[3] = molecular target: the molecule itself; test: SAXS; solution scattering of the single protein, standard 50 mM Tris pH 7.5 buffer, 10°C, four concentrations 1.4-10.8 mg/ml; GadA stored in 100 mM Na-acetate, 10 mM NaCl, 1 mM DTT pH 4.6 and raised to pH 7.5 immediately before; oligomers from molecular mass, rigid-body modelling and OLIGOMER fits

B1: glutamate decarboxylase (GadA) from E. coli (enzyme)
chain: MDQKLLTDFRSELLDSRFGAKAISTIAESKRFPLHEMRDDVAFQIINDELYLDGNARQNLATFCQTWDDENVHKLMDLSINKNWIDKEEYPQSAAIDLRCVNMVADLWHAPAPKNGQAVGTNTIGSSEACMLGGMAMKWRWRKRMEAAGKPTDKPNLVCGPVQICWHKFARYWDVELREIPMRPGQLFMDPKRMIEACDENTIGVVPTFGVTYTGNYEFPQPLHDALDKFQADTGIDIDMHIDAASGGFLAPFVAPDIVWDFRLPRVKSISASGHKFGLAPLGCGWVIWRDEEALPQELVFNVDYLGGQIGTFAINFSRPAGQVIAQYYEFLRLGREGYTKVQNASYQVAAYLADEIAKLGPYEFICTGRPDEGIPAVCFKLKDGEDPGYTLYDLSERLRLRGWQVPAFTLGGEATDIVVMRIMCRRGFEMDFAELLLEDYKASLKYLSDHPKLQGIAQQNSFKHT
notes: glutamate decarboxylase GadA, E. coli; Hexamer at pH 4.6, mixture of hexamers and dimers at pH 7.5; also called GadA low-salt
stoichiometry N [1]: 2 | stoichiometry N [2]: 6

B2: Class I fructose-1,6-bisphosphate aldolase (FbaB) from E. coli (enzyme, UniProt P0A991 1-350, looked up)
chain: MTDIAQLLGKDADNLLQHRCMTIPSDQLYLPGHDYVDRVMIDNNRPPAVLRNMQTLYNTGRLAGTGYLSILPVDQGVEHSAGASFAANPLYFDPKNIVELAIEAGCNCVASTYGVLASVSRRYAHRIPFLVKLNHNETLSYPNTYDQTLYASVEQAFNMGAVAVGATIYFGSEESRRQIEEISAAFERAHELGMVTVLWAYLRNSAFKKDGVDYHVSADLTGQANHLAATIGADIVKQKMAENNGGYKAINYGYTDDRVYSKLTSENPIDLVRYQLANCYMGRAGLINSGGAAGGETDLSDAVRTAVINKRAGGMGLILGRKAFKKSMADGVKLINAVQDVYLDSKITIA
notes: Class I fructose bisphosphate aldolase FbaB, E. coli, UniProt A0A037Y4V8; 350 amino acids, calculated monomer 38.1 kDa; Decamer in solution by SAXS; also called Class I Fba; copies: 10
stoichiometry N [3]: 10

B3: inorganic pyrophosphatase (PPase) from E. coli (enzyme)
chain: SLLNVPAGKDLPEDIYVVIEIPANADPIKYEIDKESGALFVDRFMSTAMFYPCNYGYINHTLSLDGDPVDVLVPTPYPLQPGSVIRCRPVGVLKMTDEAGEDAKLVAVPHSKLSKEYDHIKDVNDLPELLKAQIAHFFEHYKDLEKGKWVKVEGWENAEAAKAEIVASFERAKNK
notes: inorganic pyrophosphatase, E. coli; Hexamer in solution by SAXS
stoichiometry N [3]: 6
